We go through one molecule from patent US20260022175A1 (Chugai, published 2026).

In general, Kd refers to the constant that tells how readily two partners part at equilibrium.

Common to all, as to test: SPR Biacore 8k+ 25C, antibody captured, FcγR analyte; mean
For orientation: Surface plasmon resonance follows binding to a sensor surface in real time, without labels.

Assay [1] concerns the target T1, human FcγRIa extracellular domain with C-terminal His tag (human, UniProt P12314 16-288).
T1 construct: also called hFcγRIa

In assay [2] the target is T2, human FcγRIIa(H) extracellular domain with C-terminal His tag (human, UniProt P12318 34-217).
T2 construct: also called hFcγRIIa(H)
T2 sequence: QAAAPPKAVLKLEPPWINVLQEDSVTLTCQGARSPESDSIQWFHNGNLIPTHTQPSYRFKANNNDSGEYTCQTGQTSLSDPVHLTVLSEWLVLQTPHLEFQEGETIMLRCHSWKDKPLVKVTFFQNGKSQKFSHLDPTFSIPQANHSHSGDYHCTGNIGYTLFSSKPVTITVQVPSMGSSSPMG

Assay [3] concerns the target T3, human FcγRIIa(R) extracellular domain with C-terminal His tag (human, UniProt P12318 34-217).
T3 construct: also called hFcγRIIa(R)
T3 chain: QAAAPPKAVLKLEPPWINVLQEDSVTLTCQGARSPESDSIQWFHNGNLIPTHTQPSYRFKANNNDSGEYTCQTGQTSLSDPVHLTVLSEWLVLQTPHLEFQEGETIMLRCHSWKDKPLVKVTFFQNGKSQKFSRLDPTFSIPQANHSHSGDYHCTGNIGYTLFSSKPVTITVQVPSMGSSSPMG

For assay [4], the target named is T4, human FcγRIIb extracellular domain with C-terminal His tag (human, UniProt P31994 43-217).
T4 construct: also called hFcγRIIb
T4 sequence: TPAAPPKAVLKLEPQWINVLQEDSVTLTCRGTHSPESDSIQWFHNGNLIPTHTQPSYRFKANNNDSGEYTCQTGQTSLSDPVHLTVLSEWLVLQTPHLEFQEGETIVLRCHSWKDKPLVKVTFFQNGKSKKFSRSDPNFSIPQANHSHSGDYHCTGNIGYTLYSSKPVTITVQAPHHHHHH

Assay [5] has as its target T5, human FcγRIIIa(V) extracellular domain with C-terminal His tag (human, UniProt P08637 17-208).
T5 construct: also called hFcγRIIIa(V)

Assay [6] addresses T6, human FcγRIIIa(F) extracellular domain with C-terminal His tag (human, UniProt P08637 17-208).
T6 construct: also called hFcγRIIIa(F)

Assay [7] addresses T7, cynomolgus monkey FcγRIIa3 extracellular domain with His tag (cynomolgus monkey).
T7 construct: also called cyFcγRIIa3
T7 chain: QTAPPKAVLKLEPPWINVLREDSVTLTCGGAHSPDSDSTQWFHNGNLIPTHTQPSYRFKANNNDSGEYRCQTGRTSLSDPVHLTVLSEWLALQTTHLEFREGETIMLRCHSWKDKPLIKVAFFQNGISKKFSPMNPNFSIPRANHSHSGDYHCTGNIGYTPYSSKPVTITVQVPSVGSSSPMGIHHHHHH

Assay [8] deals with T8, cynomolgus monkey FcγRIIb extracellular domain with His tag (cynomolgus monkey).
T8 construct: also called cyFcγRIIb
T8 chain: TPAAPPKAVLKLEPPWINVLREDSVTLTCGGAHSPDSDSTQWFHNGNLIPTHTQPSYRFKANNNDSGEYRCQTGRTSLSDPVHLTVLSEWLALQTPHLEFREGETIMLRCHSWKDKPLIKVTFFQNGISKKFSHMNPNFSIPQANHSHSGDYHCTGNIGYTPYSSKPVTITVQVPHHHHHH

The target of assay [9] is T9, cynomolgus monkey FcγRIIIa(R) extracellular domain with His tag (cynomolgus monkey, UniProt Q8SPW2 17-208).
T9 construct: also called cyFcγRIIIa(R)

Assay [10] concerns the target T10, cynomolgus monkey FcγRIIIa(S) extracellular domain with His tag (cynomolgus monkey, UniProt Q8SPW2 21-206 at identity 1.00)).
T10 construct: also called cyFcγRIIIa(S)
T10 chain: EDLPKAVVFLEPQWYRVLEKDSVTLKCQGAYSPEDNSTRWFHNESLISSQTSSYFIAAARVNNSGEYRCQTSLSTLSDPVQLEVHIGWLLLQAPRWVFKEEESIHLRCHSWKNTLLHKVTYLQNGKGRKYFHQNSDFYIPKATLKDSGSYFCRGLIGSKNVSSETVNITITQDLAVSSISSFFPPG

For assay [11], the target named is T11, cynomolgus monkey FcγRIa extracellular domain with His tag (cynomolgus monkey, UniProt P12314 16-288 (human entry)).
T11 construct: also called cyFcγRIa
T11 chain: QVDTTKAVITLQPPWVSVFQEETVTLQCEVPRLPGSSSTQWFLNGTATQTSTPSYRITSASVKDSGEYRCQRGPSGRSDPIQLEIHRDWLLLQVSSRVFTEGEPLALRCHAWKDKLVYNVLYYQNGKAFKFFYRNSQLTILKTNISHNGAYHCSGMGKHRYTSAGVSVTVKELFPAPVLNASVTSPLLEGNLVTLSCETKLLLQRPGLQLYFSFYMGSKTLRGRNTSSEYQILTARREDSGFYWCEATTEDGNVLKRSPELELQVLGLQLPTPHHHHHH

The target of assay [12] is T12, cynomolgus monkey FcγRIIa1 extracellular domain with His tag (cynomolgus monkey).
T12 construct: also called cyFcγRIIa1
T12 chain: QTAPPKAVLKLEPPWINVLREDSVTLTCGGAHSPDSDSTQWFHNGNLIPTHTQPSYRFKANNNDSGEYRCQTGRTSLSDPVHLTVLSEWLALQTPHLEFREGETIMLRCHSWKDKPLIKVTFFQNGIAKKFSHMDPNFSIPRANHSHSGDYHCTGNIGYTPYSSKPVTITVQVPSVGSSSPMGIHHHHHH

The target in assay [13] is T13, cynomolgus monkey FcγRIIa2 extracellular domain with His tag (cynomolgus monkey).
T13 construct: also called cyFcγRIIa2
T13 chain: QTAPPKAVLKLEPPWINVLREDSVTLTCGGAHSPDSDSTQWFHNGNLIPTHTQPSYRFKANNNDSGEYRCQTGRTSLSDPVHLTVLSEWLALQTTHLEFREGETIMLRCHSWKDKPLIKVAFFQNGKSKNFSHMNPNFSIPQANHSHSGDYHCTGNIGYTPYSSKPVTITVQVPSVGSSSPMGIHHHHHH

T5 sequence (P08637 other isoform, or with tags, fused parts or gaps): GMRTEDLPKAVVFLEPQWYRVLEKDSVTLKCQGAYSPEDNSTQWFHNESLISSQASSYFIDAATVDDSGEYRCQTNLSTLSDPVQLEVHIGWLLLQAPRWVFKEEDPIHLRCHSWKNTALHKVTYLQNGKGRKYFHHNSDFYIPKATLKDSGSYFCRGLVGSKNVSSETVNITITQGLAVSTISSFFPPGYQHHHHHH
T9 sequence (Q8SPW2 other isoform, or with tags, fused parts or gaps): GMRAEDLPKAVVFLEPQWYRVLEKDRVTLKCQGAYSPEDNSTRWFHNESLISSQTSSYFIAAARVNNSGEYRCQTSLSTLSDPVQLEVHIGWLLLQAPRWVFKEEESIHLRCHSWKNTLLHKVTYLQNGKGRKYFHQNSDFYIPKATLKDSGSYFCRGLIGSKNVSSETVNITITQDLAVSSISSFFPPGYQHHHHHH
T6 sequence (P08637 other isoform, or with tags, fused parts or gaps): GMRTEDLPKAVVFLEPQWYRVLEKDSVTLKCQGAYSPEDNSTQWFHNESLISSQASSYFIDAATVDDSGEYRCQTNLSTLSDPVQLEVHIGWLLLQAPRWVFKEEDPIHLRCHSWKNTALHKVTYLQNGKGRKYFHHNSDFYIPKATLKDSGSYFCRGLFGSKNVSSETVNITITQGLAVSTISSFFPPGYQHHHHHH

B1: 04H1654-KT498/04L1610-lam1//04H1656-HT518/04L1610-lam1 (antibody, human IgG1, lambda)
heavy 1: QVQLVESGGGVVQPGGSLRLSCAASGFTFSSKTMNWVRQAPGKGLEWVSSISTQSHYIYYARSVRGRFTISRDNAKNSLYLQMNSLRAEDTAVYYCARYGKREDMLWVFDYWGQGTLVTVSSASTKGPSVFPLAPSSKSTSGGTAALGCLVKDYFPEPVTVSWNSGALTSGVHTFPAVLQSSGLYSLSSVVTVPSSSLGTQTYICNVNHKPSNTKVDKRVEPKSCDKTHTCPPCPAPEFQWGPMVFLFPPKPKDVLMISRTPEVTCVVVDVSDEEPEVKFNWYVDGVEVHNAKTKPREEQYNATYRVVSVLPVLHQDWLNGKEYKCKVSNKALPMPIEKTISKAKGQPREPQVYTLPPSRKEMTKNQVSLTCLVKGFYPSDIAVEWESNGQPENNYKTTPPVLDSDGSFFLYSKLTVDKSRWQQGNVFSCSVMHEALHNHYTQKSLSLSP
heavy 2: QVQLVESGGGVVQPGGSLRLSCAASGFTFSSKTMNWVRQAPGKGLEWVSSISTQSHYIYYAESVRGRFTISRDNAKNSLYLQMNSLRAEDTAVYYCARYGAREDMLWVFDYWGQGTLVTVSSASTKGPSVFPLAPSSKSTSGGTAALGCLVKDYFPEPVTVSWNSGALTSGVHTFPAVLQSSGLYSLSSVVTVPSSSLGTQTYICNVNHKPSNTKVDKRVEPKSCDKTHTCPPCPAPELLGGPSVFLFPPKPKDVLMISRTPEVTCVVVDVSHEEPEVKFNWYVDGVEVHNAKTKPREEQYNATYRVVSVLPVLHQDWLNGKEYKCKVSNDALPMPIEETISKAKGQPREPQVYTLPPSREEMTKNQVSLTCLVKGFYPSDIAVEWESNGQPENNYKTTPPVLDSDGSFFLYSKLTVDKSRWQQGNVFSCSVMHEALHNHYTQESLSLSP
light: QSALTQPPSASGSPGQSVTISCEGPSTGVGDYNWVHWYQQHPGKAPKLMIYFTSKKPSGVPDRFSGSKSGNTASLTVSGLQAEDEADYYCQTYAAPLGPMFGGGTKLTVLGQPKAAPSVTLFPPSSEELQANKATLVCLISDFYPGAVTVAWKADSSPVKAGVETTTPSKQSNNKYAASSYLSLTPEQWKSHRSYSCQVTHEGSTVEKTVAPTECS
notes: also called SW1610-ART12
B1: the Kd in assay [1] was determined as 0.0387 nM; in assay [2], 343 nM; in assay [3], 1790 nM; in assay [4], 38800 nM; in [5], 1.82 nM; in assay [6] it was 4.13 nM. Besides, the Kd was 5290 nM in assay [7]; 2520 nM in [8]; 1.01 nM in [9]; 0.933 nM in assay [10]; 0.0106 nM in assay [11]; 540 nM in [12]. For the same molecule, the Kd in assay [13] is 2320 nM.
